In patent publication US6403765B1, “Truncated Apaf-1 and methods of use thereof” (Thomas Jefferson University, priority 1998, dated 2002):
Where a chain is given by its changes, count along the chain named. Names may count otherwise.

T1: procaspase-9 (Homo sapiens, UniProt P55211)
T1 construct: schematic representation of full length procaspase-9; made in house; host or cells: coupled in vitro transcription/translation in rabbit reticulocyte lysate (TNT Kit, Promega)
T1 sequence (P55211 1-416): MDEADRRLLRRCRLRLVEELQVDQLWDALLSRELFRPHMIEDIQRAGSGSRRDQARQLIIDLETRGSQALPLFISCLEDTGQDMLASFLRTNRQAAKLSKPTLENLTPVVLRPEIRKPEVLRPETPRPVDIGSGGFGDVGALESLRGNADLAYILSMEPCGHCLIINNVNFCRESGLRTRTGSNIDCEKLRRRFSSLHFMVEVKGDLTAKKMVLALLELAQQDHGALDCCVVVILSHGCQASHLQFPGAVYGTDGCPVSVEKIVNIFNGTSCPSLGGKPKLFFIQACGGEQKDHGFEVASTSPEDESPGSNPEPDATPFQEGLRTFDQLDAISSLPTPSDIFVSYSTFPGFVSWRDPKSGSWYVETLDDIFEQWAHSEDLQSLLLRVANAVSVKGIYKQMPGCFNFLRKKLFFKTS

B1: WT procaspase-9: non-fusion wild type procaspase-9 (protein)
chain: T1 sequence (P55211 1-416)
B2: Caspase-9-DN: dominant negative procaspase-9-C287A mutant (protein)
chain: T1 sequence (P55211 1-416) with C287A

Legend:
procaspase-9 [1] = assay: Autoprocessing of in vitro translated procaspase-9 and Fc-fusion procaspase-9 variants; type: biochemical; settings: 35S-labeled, FIG. 9
Description: (§1) ^35S-labeled caspases were obtained by in vitro translation in the presence of ^35S-methionine using a coupled transcription/translation system in rabbit reticulocyte lysate using TNT Kit (Promega) according to the manufacturer's recommendations.
Artificially-induced oligomerization of procaspase-1 or procaspase-8 by overexpression or by heterologous-inducible oligomerization systems causes their autocatalytic processing/activation (Gu et al., EMBO 14:1923-1931, 1995; Muzio et al., J. Biol. Chem. 273:2926-2930, 1998; Yang et al., Mol. Cell 1:319-325, 1998). To test if procaspase-9 can also be activated by heterologous oligomerization, WT and the C287A mutant procaspase-9 was fused to the mouse IgG-Fc portion which can form spontaneous dimers by intermolecular disulfide linkages. FIG. 9 depicts processing of non-fusion WT procaspase-9 (pcasp-9, lane 1) or C-terminal Fc-fusion WT (pcasp-9-Fc, lane 2) or C287A (active site) mutant (pcasp-9-C287A-Fc, lane 3) procaspase-9 which were in vitro translated in the presence of ^35S-methionine and then analyzed by SDS-PAGE and autoradiography.

MCF-7 cells [2] = assay: Induction of apoptosis in MCF-7 cells transfected with procaspase-9 variants; type: cell-based; settings: overexpression, 30 hours after transfection, FIG. 10
Description: (§2) To express the caspases or truncated Apaf-1 in mammalian cells and assay their apoptotic activity, they were amplified with the T7-tag primer and reverse primers using the pET28a constructs as templates, and subcloned into the mammalian double expression vector pRSC-LacZ (MacFarlane et al., J. Biol. Chem., 272:25417-25420, 1997; Tsang et al., Bio/Technology, 22:68, 1997) or as previously described (Li et al., Cell 91:479-489, 1997; Srinivasula et al., J. Biol. Chem., 272:18452-18545, 1997). This vector allows the expression of lacZ under the Rous Sarcoma virus promoter, and the test cDNA under the CMV promoter. To assay for apoptosis, MCF-7 or 293 cells were transfected, using the method commercially available as the Lipofect Amine method (Life Technologies, Inc.), with the pRSC-LacZ constructs in the presence or absence of different apoptosis-inhibitors. 30 h after transfection cells were stained with β-galactosidase and examined for morphological signs of apoptosis. The percentage of round blue apoptotic cells (mean±SD) were determined by phase contrast microscopy and then represented as a function of total blue cells under each condition (n≧3).
In FIG. 10, mammalian expression constructs encoding Fc or the procaspase-9 variants described in FIG. 9 were transfected into MCF-7 cells together with a reporter β-gal expression construct at a ratio of 3:1. […]

procaspase-3 = assay: Cytochrome c/dATP-dependent processing of procaspase-3 in 293 cellular S100 extract; type: biochemical; settings: 293 S100 extract, increasing amounts of purified protein, 1 hour at 30° C., dose-dependent, FIG. 18
Procedure: (§3) To confirm this, a time course analysis of procaspase-9 and procaspase-3 processing was performed in cellular S100 extracts from 293 and MCF-7 cells. […] At the indicated times the reactions were stopped and then analyzed by SDS-PAGE and autoradiography (procaspase-9 panels) or Western blot analysis using anti-caspase-3 p20 polyclonal antibody (procaspase-3 panels). Small arrows indicate a non-specific band detected by the anti-caspase-3 antibody.
In FIG. 8, ^35S-labeled procaspase-3, -6 or -7 were incubated with S100 extracts from 293 cells in the presence or absence of cytochrome c/dATP or DEVD-CHO, or both and analyzed by SDS-PAGE followed by autoradiography. However, when DEVD-CHO was included, processing of procaspase-6 (lane 6), but not procaspase-3 (lane 3) or -7 (lane 9) was inhibited. […] Also, since caspase-7 cannot process procaspase-6 (Srinivasula et al., J. Biol. Chem. 271:27099-27106, 1996), caspase-3 is the one responsible for processing of procaspase-6 in the cytochrome c plus dATP-dependent pathway.
(§4) In FIG. 18, 293 cellular S100 extracts supplemented with ^35S-labeled procaspase-9 (upper panel) or procaspase-3 (lower panel) were incubated with (lanes 3-7) or without (lane 2) cytochrome c plus dATP in the presence of increasing amounts of purified recombinant procaspase-9-C287A mutant for 1 hour at 30° C. and then analyzed by SDS-PAGE and autoradiography. […] Consequently, the Apaf-1/caspase-9 pathway appears to be a central apoptotic pathway, on which most apoptotic signals converge.

[3] = tested on: apoptosis induced by the proapoptotic members of the Bcl-2 family; settings: Hegde et al. 1998; Li et al. 1997; cited from earlier work
procaspase-9 [4] = assay: Cytochrome c/dATP-dependent processing of procaspase-9 in 293 cellular S100 extract; type: biochemical; settings: 293 S100 extract, increasing amounts of purified protein, 1 hour at 30° C., dose-dependent, FIG. 18
Procedure: To study processing of procaspase-9 in the cytochrome c/Apaf-1-dependent pathway, WT and the Asp to Ala mutants of procaspase-9 were incubated with a cellular S100 extract in the presence or absence of cytochrome c and dATP. […] Samples were then analyzed by SDS-PAGE and autoradiography.
as §3, §4

MCF-7 cells [5] = assay: Inhibition of apoptosis in transfected MCF-7 cells; type: cell-based; settings: apoptosis induced by UV, Fas agonist antibody
Description: as §2

procaspase-9 [6] = target: T1, procaspase-9; assay: In vitro caspase 9 activation assay: recombinant Apaf-1 variants incubated with in vitro translated procaspase-9; type: biochemical; settings: in vitro reconstituted system, data not shown
Procedure: SDS sample buffer was then added to each sample, boiled and subjected to SDS-PAGE analysis followed by autoradiography. In FIG. 2A procaspase-9 was in vitro translated in the presence of ^35S-methionine. Following translation procaspase-9 was desalted by gel filtration through a biospin column (BioRad) to remove unincorporated methionine and free nucleotides. Desalted procaspase-9 was then incubated with 200 ng Ni^2+-affinity purified bacterially expressed recombinant Apaf-530 (WT or K149R mutant) in the presence or absence of cytochrome c or dATP or both for 2 h at 30° C. A mock sample containing Ni^2+-affinity purified material from bacteria transformed with an empty vector was used as a negative control. Following incubation the products were analyzed by SDS-PAGE and autoradiography. In FIG. 2B^35S-labeled procaspase-9 (as described above) was incubated with bacterial lysates containing truncated Apaf-1 variants as indicated and then analyzed as above (2B upper panel). The bacterial lysates were analyzed by SDS-PAGE and immunoblotted with an Apaf-1 antibody which recognizes the N-terminus of Apaf-1 (lanes 2-6) and an anti T7-tag antibody (lanes 7-8) to confirm expression and equivalent concentration of the different Apaf-1 variants (2B lowerpanel). The molecular mass markers are indicated to the right of the lower panel.
as §1
To determine the role of the WD-40 repeat in the mechanism of Apaf-1-induced processing of procaspase-9, truncated Apaf-1 (Apaf-530) lacking its WD-40 repeats (FIG. 1) was expressed and purified. To reconstitute a recombinant caspase-9 activation system, the truncated Apaf-530 was incubated with in vitro translated recombinant procaspase-9 in the presence or absence of cytochrome c and dATP. […] It was previously shown that mutation of CED-4 K165R which is required for nucleotide binding destroys its activity (Chinnaiyan et al., Nature 388:728-729, 1997; Jarnes et al., Curr. Biol. 7:246-252, 1997; Seshagiri and Miller, Curr. Biol. 7:455-460, 1997). […] Therefore, either binding of Apaf-1 to cytochrome c and dATP or deletion of the repeats could induce a conformational change enabling Apaf-1 to bind and process procaspase-9.
In FIG. 3, ^35S-labeled WT or mutant D330A, D315A or C287A mutants of procaspase-9 or prodomainless procaspase-9 (Δpro, residues 134-416) were incubated with buffer (lanes 1, 4, 7, 10, 13), purified Apaf-530 (lanes 2, 5, 8, 11, 14) or mock purified material (lanes, 3, 6, 9, 12, 15) and then analyzed by SDS-PAGE and autoradiography.

Molecule	self-processing to large subunit (p35) and small subunit (procaspase-9 [1])	induction of apoptosis (MCF-7 cells [2])	attenuation of cytochrome c/dATP-induced activation of procaspase-3 (procaspase-3)	inhibition of apoptosis induced by the proapoptotic members of the Bcl-2 family [3]	attenuation of cytochrome c/dATP-induced activation of procaspase-9 (procaspase-9 [4])	inhibition of apoptosis (MCF-7 cells [5]; TRAIL, or overexpression of DR4 and DR5, FIG. 17)	inhibition of apoptosis (MCF-7 cells [5]; TRAIL, or overexpression of DR4 and DR5, FIG. 17, listed as dominant negative caspase-9 mutant)	attenuation of Apaf-530-induced activation of procaspase-9 (procaspase-9 [6])
B1	incapable of processing	induced little apoptosis						
B2			able to attenuate	can inhibit apoptosis	able to attenuate	can also inhibit apoptosis	as efficient as that observed with Bcl-xL or X-IAP	A similar result
